Test results from publication PMC6025902 (Science Advances, 2018).

Target: monomeric amyloid-β peptide 1–42 (Aβ42) (human, UniProt P05067 672-713)
Experiment: ITC

Kd: 590 ± 230 nM | dH: -947 ± 29.5 cal/mol | stoichiometry N: 2.37 ± 0.07
B1: S100B protein (natural protein)
chain: MSELEKAMVALIDVFHQYSGREGDKHKLKKSELKELINNELSHFLEEIKEQEVVDKVMETLDNDGDGECDFQEFMAFVAMVTTACHEFFEHE
